This data set deals with the molecule itself. Briefly: SEC; Zorbax-GF250 column, 1 mL/min, 200 mM sodium phosphate pH 7.0, column at room temperature; holo-TK samples stored at 4 °C or heated 15 min at 21 °C or 50 °C; homodimer and monomer peaks combined as 'native' because dilution during SEC can cause partial dissociation to monomer.

B1: wild-type E. coli transketolase (enzyme)
chain: SSRKELANAIRALSMDAVQKAKSGHPGAPMGMADIAEVLWRDFLKHNPQNPSWADRDRFVLSNGHGSMLIYSLLHLTGYDLPMEELKNFRQLHSKTPGHPEVGYTAGVETTTGPLGQGIANAVGMAIAEKTLAAQFNRPGHDIVDHYTYAFMGDGCMMEGISHEVCSLAGTLKLGKLIAFYDDNGISIDGHVEGWFTDDTAMRFEAYGWHVIRDIDGHDAASIKRAVEEARAVTDKPSLLMCKTIIGFGSPNKAGTHDSHGAPLGDAEIALTREQLGWKYAPFEIPSEIYAQWDAKEAGQAKESAWNEKFAAYAKAYPQEAAEFTRRMKGEMPSDFDAKAKEFIAKLQANPAKIASRKASQNAIEAFGPLLPEFLGGSADLAPSNLTLWSGSKAINEDAAGNYIHYGVREFGMTAIANGISLHGGFLPYTSTFLMFVEYARNAVRMAALMKQRQVMVYTHDSIGLGEDGPTHQPVEQVASLRVTPNMSTWRPCDQVESAVAWKYGVERQDGPTALILSRQNLAQQERTEEQLANIARGGYVLKDCAGQPELIFIATGSEVELAVAAYEKLTAEGVKARVVSMPSTDAFDKQDAAYRESVLPKAVTARVAVEAGIADYWYKYVGLNGAIVGMTTFGESAPAELLFEEFGFTVDNVVAKAKELL
notes: transketolase (TK) of E. coli, wild-type gene in plasmid pQR791; the introduction gives the domains as residues 1-322 (PP), 323-539 (Pyr) and 540-663 (C-terminal); Used as holo-TK with ThDP and MgCl2; also called WT TK; WT-TK; source: E. coli XL-10-Gold with plasmid pQR791, purified (Ni-NTA)
Regarding B1, the binding result is listed as “binds”.

The record behind these values is article PMC11564776, “Enzyme stabilisation due to incorporation of a fluorinated non-natural amino acid at the protein surface” (Scientific Reports, 2024).
